The target in this assay is T1, a disintegrin and metalloproteinase-17 catalytic domain (6xHis-ADAM-17cd) (UniProt P78536).
T1 construct: ADAM-17 (TACE), catalytic domain; also called TACE; tumor necrosis factor-α-converting enzyme; source: bought: Enzo Life Sciences
The assay is described as follows: flow cytometry on cells; scFv variants or TIMP-3 displayed on yeast; soluble 6xHis-ADAM-17cd or MMP-9cd at 100 nM (legend and results; the methods say 150 nM); PBSA pH 7.4; binding read with anti-6xHis Alexa Fluor 647, expression with anti-c-Myc and Alexa Fluor 488; median binding normalised to expression. The conditions noted are these: one partner purified. A general note: In flow cytometry, cells or beads pass a laser one at a time.

T1 sequence (P78536 215-474): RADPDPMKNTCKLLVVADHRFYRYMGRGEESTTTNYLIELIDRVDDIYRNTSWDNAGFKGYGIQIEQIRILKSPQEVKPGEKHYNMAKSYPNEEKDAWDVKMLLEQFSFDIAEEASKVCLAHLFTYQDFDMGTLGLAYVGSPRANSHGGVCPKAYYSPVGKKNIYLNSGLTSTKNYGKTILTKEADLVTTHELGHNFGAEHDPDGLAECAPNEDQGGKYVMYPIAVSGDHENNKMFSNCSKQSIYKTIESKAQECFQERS

B1: SynAb-A7 scFv displayed on yeast (scFv, V domains shown)
VH: EVQLVQSGAEVKKPGESLKISCKGSGYSFTSYWIGWVRQMPGKGLEWMGIIYPGDSDTRYSPSFQGQVTISADKSISTAYLQWSSLKASDTAVYYCARKKEYYSRFDYWGQGTLVTVSS
VL: not shown
notes: light chain variable domain as printed; glycine-rich peptide linker between VL and VH; heavy chain variable domain as printed; CDR-H3 KKEYYSR; VL-VH orientation; source: yeast surface display, S. cerevisiae RJY100, pCTCON2 vector; not shown: Aga2p, N-terminal, kept
For B1, the “binding per expression signal, fold of TIMP-3” value is ≤ 3 fold.

B2: SynAb-A6 scFv displayed on yeast (scFv, V domains shown)
VH: EVQLVQSGAEVKKPGESLKISCKGSGYSFTSYWIGWVRQMPGKGLEWMGIIYPGDSDTRYSPSFQGQVTISADKSISTAYLQWSSLKASDTAVYYCARTDLHVHVYYFDYWGQGTLVTVSS
VL: not shown
notes: light chain variable domain as printed; glycine-rich peptide linker between VL and VH; heavy chain variable domain as printed; CDR-H3 TDLHVHVYY; VL-VH orientation; source: yeast surface display, S. cerevisiae RJY100, pCTCON2 vector; not shown: Aga2p, N-terminal, kept
In the case of B2, the binding result is recorded as “binds”.

B3: SynAb-A9 scFv displayed on yeast (scFv, V domains shown)
VH: QLQLQESGPGLVKPSETLSLTCTVSGGSISSSSYYWGWIRQPPGKGLEWIGSIYYSGSTYYNPSLKSRVTISVDTSKNQFSLKLSSVTAADTAVYYCARPGGYYDMEYLYFDYWGQGTLVTVSS
VL: not shown
notes: light chain variable domain as printed; glycine-rich peptide linker between VL and VH; heavy chain variable domain as printed; CDR-H3 PGGYYDMEYLY; VL-VH orientation; source: yeast surface display, S. cerevisiae RJY100, pCTCON2 vector; not shown: Aga2p, N-terminal, kept
Turning to B3, the binding result is given as “binds”.
